# Patent publication US20250011363A1, “OPTIMIZED SHORTENED PEPTIDE THAT BINDS TO ACETYLCHOLINE RECEPTOR, AND USE THEREOF” (SKINMED CO., LTD., priority 2021, published 2025)
# Biological target: acetylcholine receptor
# Experiment: SPR, receptor immobilized on CM5 chip, peptide 10 uM
row,Binder,Binding affinity (RU)
1,KRFRKK [6mer-2-410],153
2,RWIQKR [6mer-2-433],139
3,KRFWWK [6mer-1-913],27
4,RLVQKR [6mer-2-442],139
5,KGQRRK [6mer-2-426],141
6,RKDHIK [6mer-1-919],26
7,RQRYRK [6mer-2-450],123
8,KRPTIR [6mer-1-910],42
9,RLYCKK [6mer-2-424],139
10,RRCDHK [6mer-1-929],25
11,KLILKR [6mer-2-431],135
12,RRKCVR [6mer-1-914],39
13,RRQYRK [6mer-2-420],128
14,RKFCMR [6mer-1-909],33
15,RWVYKR [6mer-2-435],154
16,KQVSKR [6mer-2-407],122
17,RLQYRK [6mer-2-423],154
18,KQIYRR [6mer-2-408],139
19,RSRYKK [6mer-2-419],154
20,RWRQRK [6mer-2-429],123
21,RWVYKK [6mer-2-417],151
22,RLITRR [6mer-2-422],154
23,RVQYKK [6mer-2-418],121
24,RKDTWK [6mer-1-915],27
25,RVLSKR [6mer-2-404],121
26,KQVCKK [6mer-2-437],121

row,Binder,Binding affinity (RU)
1,RQRLKK [6mer-2-444],141
2,RSFRRR [6mer-2-448],128
3,RLILKR [6mer-2-413],136
4,RQLQKK [6mer-2-446],153
5,KRADDK [6mer-1-917],27
6,KRFLKK [6mer-2-412],139
7,KRRRKR [6mer-2-409],139
8,KGYRKK [6mer-2-405],137
9,KSQRKR [6mer-2-441],139
10,KGVLRK [6mer-2-403],123
11,RRASDR [6mer-1-923],43
12,KQLSKK [6mer-2-440],153
13,KRYCPK [6mer-1-928],30
14,KVICRK [6mer-2-421],124
15,RRVYKR [6mer-2-457],146
16,KRYSRR [6mer-2-402],145
17,RRESMR [6mer-1-918],33
18,RSVQKK [6mer-2-454],133
19,KVLYKR [6mer-2-436],148
20,RSRQKK [6mer-2-411],121
21,RGRCRR [6mer-2-449],154
22,KWRQKK [6mer-2-414],135
23,KWFSKR [6mer-2-439],153
24,KGRCKK [6mer-2-415],149
25,RLVRKK [6mer-2-453],141
26,RLVCKR [6mer-2-445],145

# Now from value to binder:
row,Binding affinity (RU),Binder
1,33,RRNAAK [6mer-1-916]
2,34,RRDWGR [6mer-1-922]
3,131,RWRLRR [6mer-2-416]
4,40,KRESDR [6mer-1-926]
5,28,KRCAAR [6mer-1-911]
6,35,KKNWPR [6mer-1-931]
7,43,KKESNK [6mer-1-930]
8,139,RVYTKK [6mer-2-447]
9,148,RGRCKK [6mer-2-451]
10,145,KLQTKK [6mer-2-425]
11,135,RWYSKR [6mer-2-455]
12,139,KGIYRR [6mer-2-406]
13,29,RKFNWR [6mer-1-924]
14,33,KKETFR [6mer-1-912]
15,147,KSVTKR [6mer-2-456]
16,40,RRPAMR [6mer-1-920]
17,142,KVFLKK [6mer-2-428]
18,146,KGLYKR [6mer-2-452]
19,42,KKAMHR [6mer-1-925]
20,37,KRESHR [6mer-1-927]
21,147,RLQRRR [6mer-2-427]
22,131,RLLCRK [6mer-2-438]
23,148,KVVRKR [6mer-2-432]
24,122,RQYCRR [6mer-2-443]
25,139,RWFRRR [6mer-2-430]
26,154,RVIRRK [6mer-2-434]
27,36,RKFWHR [6mer-1-921]
